Laboratory results taken from patent US20260274955A1 (JANUX THERAPEUTICS, published 2026).

Each binder was assayed against anti-CD28 Fab (SEQ ID NOs: 202, 203) (assay: phage ELISA, Fab on plate;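 further: ELISA of crude clonal phage supernatants on the plate, wells preloaded with CD28 antigen or only blocking buffer, captured phage read out via HRP-linked anti-M13 antibody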).
anti-CD28 Fab (SEQ ID NOs: 202, 203), sequence (VH, as listed by the source, chain 1 of 2): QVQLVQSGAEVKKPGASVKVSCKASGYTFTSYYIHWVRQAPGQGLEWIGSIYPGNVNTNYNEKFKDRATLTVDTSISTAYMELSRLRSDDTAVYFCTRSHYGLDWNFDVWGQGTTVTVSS
anti-CD28 Fab (SEQ ID NOs: 202, 203), sequence (VL, as listed by the source, chain 2 of 2): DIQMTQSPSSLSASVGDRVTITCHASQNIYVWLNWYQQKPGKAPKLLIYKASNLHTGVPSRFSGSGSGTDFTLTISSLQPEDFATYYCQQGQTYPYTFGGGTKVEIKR
Experimental: (§1) After panning, phage infected bacteria were plated out and colonies picked into 96 well blocks. Clonal phage was then amplified and separated from bacterial cells via centrifugation.
(§2) Clonal phage were harvested as crude supernatants and screened via standard ELISAs. […] Prior to the addition of clonal phage, wells were incubated with blocking buffer and CD28 antigen or blocking buffer alone. Without washing or aspirating, clonal phage supernatants were then added to the wells and incubated for a short time. Wells were then washed followed by detection of bound phage using a horse radish conjugated anti-M13 antibody. Clonal phage of interest were then sent for sequence analysis.

Compared with SCSAGATYQWPYCF [Phage-1176], TCAAGANWHWPWCF [Phage-1114] is higher in “Anti-CD28 Fab signal” value: 1.26 for the first, 1.46 for the second.

Going from LCAAGATYPWPICL [Phage-1115] to SCSAGALWKWPVCF [Phage-1116], the “Anti-CD28 Fab signal” value falls from 1.46 to 1.45.

Compared with TCSAGFSYKWPWCW [Phage-1117], SCSAGAMYQWPLCF [Phage-1118] is lower in “Anti-CD28 Fab signal” value: 1.45 for the first, 1.44 for the second.

TCSAGATYMWPACF [Phage-1120] and TCSAGATYAWPACF [Phage-1121] are the same in “Anti-CD28 Fab signal” value: 1.44 for the first, 1.44 for the second.

Compared with TCSAGATYKWPACF [Phage-1172], WCGVGMDWRWPECL [Phage-1122] is higher in “Anti-CD28 Fab signal” value: 1.29 for the first, 1.44 for the second.

First: TCEDGFHFSWPECF [Phage-1123]
Second: WCDQFFHYKWPLCL [Phage-1126]
The “Anti-CD28 Fab signal” value of the first is higher: 1.44 for the first, 1.42 for the second.

SCAAGATYVWPMCF [Phage-1127] and TCAAGAHYSWPFCM [Phage-1128] are the same in “Anti-CD28 Fab signal” value: 1.42 for the first, 1.42 for the second.

Going from TCSAGATYSWPYCL [Phage-1186] to SCSAGATYTWPACL [Phage-1158], the “Anti-CD28 Fab signal” value rises from 1.22 to 1.34.

Compared with TCSAGAHYSWPKCF [Phage-1159], SCAAGAHYPWPECL [Phage-1160] is lower in “Anti-CD28 Fab signal” value: 1.33 for the first, 1.32 for the second.

SCAEVFNYVWPFCF [Phage-1161] and TCAAGAAYTWPVCF [Phage-1162] are the same in “Anti-CD28 Fab signal” value: 1.32 for the first, 1.32 for the second.

SCAAGAMWEWPKCF [Phage-1163] and SCADGAIWEWPWCF [Phage-1164] are the same in “Anti-CD28 Fab signal” value: 1.32 for the first, 1.32 for the second.

Going from TCAAGATYEWPSCL [Phage-1165] to SCSAGAMYTWPTCL [Phage-1166], the “Anti-CD28 Fab signal” value falls from 1.32 to 1.31.

Compared with LCAAGAAWEWPMCF [Phage-1167], QCSAGATYAWPFCL [Phage-1168] is lower in “Anti-CD28 Fab signal” value: 1.3 for the first, 1.29 for the second.

TCAAGVPYKWPPCL [Phage-1169] and SCAAGATYTWPFCL [Phage-1170] are the same in “Anti-CD28 Fab signal” value: 1.29 for the first, 1.29 for the second.

Going from RCAAVFSYTWPPCL [Phage-1171] to LCAAGAYYPWPLCF [Phage-1173], the “Anti-CD28 Fab signal” value falls from 1.29 to 1.28.

First: TCTAGFSYKWPTCL [Phage-1174]
Second: SCAAGATYSWPACL [Phage-1177]
The “Anti-CD28 Fab signal” value of the first is higher: 1.28 for the first, 1.25 for the second.

First: NCAAGAMYSWPTCL [Phage-1178]
Second: TCAAGATYMWPVCL [Phage-1180]
The “Anti-CD28 Fab signal” value of the first is higher: 1.25 for the first, 1.24 for the second.

Compared with SCAAGATWKWPECL [Phage-1181], TCAAGATWLWPWCL [Phage-1182] is lower in “Anti-CD28 Fab signal” value: 1.24 for the first, 1.23 for the second.

Compared with TCAAGAVWTWPICF [Phage-1183], TCADGAFWQWPVCL [Phage-1184] is lower in “Anti-CD28 Fab signal” value: 1.23 for the first, 1.22 for the second.

Going from TCSAGASWGWPWCL [Phage-1185] to LCAAGATYPWPDCV [Phage-1188], the “Anti-CD28 Fab signal” value falls from 1.22 to 1.21.

Each binder was assayed against anti-CD28 Fab (SEQ ID NOs: 202, 203) (assay: phage ELISA, Fab on plate, CD28 antigen as competitor;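 further: wells pre-incubated with CD28 antigen in blocking buffer (reference: blocking buffer only) before adding crude clonal phage supernatant, bound phage read with HRP-coupled anti-M13 antibody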).
Experimental: as §1, §2

Going from SCSAGATYQWPYCF [Phage-1176] to TCAAGANWHWPWCF [Phage-1114], the “Anti-CD28 Fab signal in the presence of CD28” value (“Anti-CD28 Fab signal … of CD28” below) rises from 0.06 to 0.15.

Compared with LCAAGATYPWPICL [Phage-1115], SCSAGALWKWPVCF [Phage-1116] is lower in “Anti-CD28 Fab signal … of CD28” value: 0.08 for the first, 0.07 for the second.

Going from TCSAGFSYKWPWCW [Phage-1117] to SCSAGAMYQWPLCF [Phage-1118], the “Anti-CD28 Fab signal … of CD28” value rises from 0.06 to 0.09.

Compared with TCSAGATYMWPACF [Phage-1120], TCSAGATYAWPACF [Phage-1121] is lower in “Anti-CD28 Fab signal … of CD28” value: 0.1 for the first, 0.08 for the second.

Going from TCSAGATYKWPACF [Phage-1172] to WCGVGMDWRWPECL [Phage-1122], the “Anti-CD28 Fab signal … of CD28” value rises from 0.05 to 0.16.

TCEDGFHFSWPECF [Phage-1123] and WCDQFFHYKWPLCL [Phage-1126] are the same in “Anti-CD28 Fab signal … of CD28” value: 0.07 for the first, 0.07 for the second.

SCAAGATYVWPMCF [Phage-1127] and TCAAGAHYSWPFCM [Phage-1128] are the same in “Anti-CD28 Fab signal … of CD28” value: 0.07 for the first, 0.07 for the second.

TCSAGATYSWPYCL [Phage-1186] and SCSAGATYTWPACL [Phage-1158] are the same in “Anti-CD28 Fab signal … of CD28” value: 0.07 for the first, 0.07 for the second.

Compared with TCSAGAHYSWPKCF [Phage-1159], SCAAGAHYPWPECL [Phage-1160] is lower in “Anti-CD28 Fab signal … of CD28” value: 0.07 for the first, 0.05 for the second.

First: SCAEVFNYVWPFCF [Phage-1161]
Second: TCAAGAAYTWPVCF [Phage-1162]
The “Anti-CD28 Fab signal … of CD28” value of the first is lower: 0.07 for the first, 0.08 for the second.

Going from SCAAGAMWEWPKCF [Phage-1163] to SCADGAIWEWPWCF [Phage-1164], the “Anti-CD28 Fab signal … of CD28” value falls from 0.09 to 0.07.

Compared with TCAAGATYEWPSCL [Phage-1165], SCSAGAMYTWPTCL [Phage-1166] is lower in “Anti-CD28 Fab signal … of CD28” value: 0.09 for the first, 0.08 for the second.

Going from LCAAGAAWEWPMCF [Phage-1167] to QCSAGATYAWPFCL [Phage-1168], the “Anti-CD28 Fab signal … of CD28” value rises from 0.06 to 0.08.

First: TCAAGVPYKWPPCL [Phage-1169]
Second: SCAAGATYTWPFCL [Phage-1170]
The “Anti-CD28 Fab signal … of CD28” value of the first is lower: 0.06 for the first, 0.07 for the second.

Compared with RCAAVFSYTWPPCL [Phage-1171], LCAAGAYYPWPLCF [Phage-1173] is lower in “Anti-CD28 Fab signal … of CD28” value: 0.07 for the first, 0.06 for the second.

Going from TCTAGFSYKWPTCL [Phage-1174] to SCAAGATYSWPACL [Phage-1177], the “Anti-CD28 Fab signal … of CD28” value falls from 0.09 to 0.07.

NCAAGAMYSWPTCL [Phage-1178] and TCAAGATYMWPVCL [Phage-1180] are the same in “Anti-CD28 Fab signal … of CD28” value: 0.07 for the first, 0.07 for the second.

SCAAGATWKWPECL [Phage-1181] and TCAAGATWLWPWCL [Phage-1182] are the same in “Anti-CD28 Fab signal … of CD28” value: 0.07 for the first, 0.07 for the second.

Compared with TCAAGAVWTWPICF [Phage-1183], TCADGAFWQWPVCL [Phage-1184] is higher in “Anti-CD28 Fab signal … of CD28” value: 0.05 for the first, 0.07 for the second.

Compared with TCSAGASWGWPWCL [Phage-1185], LCAAGATYPWPDCV [Phage-1188] is lower in “Anti-CD28 Fab signal … of CD28” value: 0.07 for the first, 0.05 for the second.
